Reference: publication PMC12345223

Molecular target: T1, ChCpc1;ChAtf1 (Cochliobolus heterostrophus C4 (Tox1+, …, UniProt M2T2C6;M2TIN4 1-465;1-567, |))
T1 sequence 1: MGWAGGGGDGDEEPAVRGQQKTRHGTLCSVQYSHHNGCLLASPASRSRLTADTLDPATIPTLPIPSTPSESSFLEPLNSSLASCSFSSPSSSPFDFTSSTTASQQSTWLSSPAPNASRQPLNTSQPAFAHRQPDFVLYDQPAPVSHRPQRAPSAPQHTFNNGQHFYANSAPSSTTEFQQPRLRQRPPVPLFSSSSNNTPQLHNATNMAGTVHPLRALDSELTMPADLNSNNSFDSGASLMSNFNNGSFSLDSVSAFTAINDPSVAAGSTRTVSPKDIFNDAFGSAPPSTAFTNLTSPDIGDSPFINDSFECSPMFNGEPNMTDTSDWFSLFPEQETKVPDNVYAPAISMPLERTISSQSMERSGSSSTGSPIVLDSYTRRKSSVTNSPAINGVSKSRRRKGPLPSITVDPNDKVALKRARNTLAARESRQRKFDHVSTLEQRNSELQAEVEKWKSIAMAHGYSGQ
T1 sequence 2: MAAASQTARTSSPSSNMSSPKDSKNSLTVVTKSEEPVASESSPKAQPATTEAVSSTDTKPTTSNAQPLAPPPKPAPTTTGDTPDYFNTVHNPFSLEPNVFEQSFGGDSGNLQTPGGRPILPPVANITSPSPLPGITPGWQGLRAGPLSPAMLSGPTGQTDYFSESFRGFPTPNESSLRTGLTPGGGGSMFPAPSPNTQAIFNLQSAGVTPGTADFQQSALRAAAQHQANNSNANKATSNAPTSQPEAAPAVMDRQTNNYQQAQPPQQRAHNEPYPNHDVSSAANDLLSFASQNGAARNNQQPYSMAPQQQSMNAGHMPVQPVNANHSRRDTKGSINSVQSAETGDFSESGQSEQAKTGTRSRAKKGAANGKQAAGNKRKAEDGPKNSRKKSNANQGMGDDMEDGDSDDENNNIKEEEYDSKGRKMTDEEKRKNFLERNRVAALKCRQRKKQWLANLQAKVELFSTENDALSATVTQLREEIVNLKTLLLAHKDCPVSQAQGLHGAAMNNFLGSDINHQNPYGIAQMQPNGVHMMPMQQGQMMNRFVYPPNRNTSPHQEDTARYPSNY
Test: EMSA; enhanced versus ChCpc1 alone; Light Shift Chemiluminescent EMSA Kit (Beyotime), 20 min at 25°C; 6.5% polyacrylamide gel, 0.5x TBE; binding buffer, salt and pH not stated
Conditions: protein: recombinant;recombinant; tags: His (pET-32a);His (pET32a); copies: 1;1; label: biotin (on forward strand); blunt

B1: ChATG8 promoter probe (dsDNA)
DNA 1: GGAGAGCGTGAAGGAGAGAGACGGGATGAGTCAAAGTACCCAGGTAGCCAGGTCATGGGA
DNA 2: TCCCATGACCTGGCTACCTGGGTACTTTGACTCATCCCGTCTCTCTCCTTCACGCTCTCC
Question: Does B1 bind?
Answer: Result: binds

B2: ChARG4 promoter probe (dsDNA)
DNA 1: CATTGGCGTTTGGGACTGAATTACAATGAGTAATGAAATAACTCACACCACAAAGCAGTA
DNA 2: TACTGCTTTGTGGTGTGAGTTATTTCATTACTCATTGTAATTCAGTCCCAAACGCCAATG
Question: Does B2 bind?
Answer: Result: binds
